Experimental data published in patent CN112142841A (JIANGSU QUANXIN BIOMEDICAL CO LTD, dated 2020).

Experiments:
[1] = molecular target: T1, 人IL-17A蛋白 (Example 4, sandwich ELISA) (human, UniProt Q16552 24-155); experiment: sandwich ELISA: QX002N coated, human IL-17A 0-10 ng/ml, biotin-labelled second antibody for detection, SA-HRP
T1 construct: also called 重组人IL-17A蛋白标准品; recombinant human IL-17A protein standard
T1 sequence (looked up): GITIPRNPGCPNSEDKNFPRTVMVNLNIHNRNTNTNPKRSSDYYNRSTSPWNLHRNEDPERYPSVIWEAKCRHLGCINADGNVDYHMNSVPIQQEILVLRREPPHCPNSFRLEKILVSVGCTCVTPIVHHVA

[2] = molecular target: T2, 人IL-17A (His-tag，购自Novoprotein) (human, UniProt Q16552 24-155); experiment: ELISA: antibody coated, serially diluted His-tagged human IL-17A, anti-His-HRP detection
T2 construct: Bought His-tagged protein, detected with an HRP-labelled anti-His antibody; also called human IL-17A; hIL-17A; not shown: His-tag
T2 sequence (looked up): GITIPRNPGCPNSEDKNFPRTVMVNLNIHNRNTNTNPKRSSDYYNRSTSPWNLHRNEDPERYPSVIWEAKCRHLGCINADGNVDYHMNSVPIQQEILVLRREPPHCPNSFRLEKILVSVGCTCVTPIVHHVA

binding result [1]: binds
binding result [2]: binds
B1: 抗人IL-17A单克隆抗体 (anti-human IL-17A monoclonal antibody) (antibody, V domains shown)
VH: QSLEESGGDLVQPEGSLALTCKASGFDLSSYYYMCWVRQAPGKGLEWIACIHTGNGYPYYANWAKGRFTISKTSSTTVTLQLTSLTVADTATYFCARPVGGYDYAMDLWGPGTLVTVSS
VL: AYDMTQTPASVSAAVGGTVTINCQASEDISSQLSWYQQRPGQPPKLLIYKASTLASGVPSRFRGSGSGTQFTLTISGVQCADAATYYCQQSASYFNVANTFGGGTEVVVKG
notes: also called 第二抗体; 检测抗体
